Measured values as given in patent publication US20090208416A1.

Key:
[1] = target: NKG2A on rhesus monkey (Macaca mulatta) NK cells (rhesus monkey (Macaca mulatta)) (UniProt Q9MZJ3); experiment: FACS rhesus whole blood, animal O967
[2] = target: NKG2A on rhesus monkey (Macaca mulatta) NK cells (rhesus monkey (Macaca mulatta)) (UniProt Q9MZJ3); experiment: FACS rhesus whole blood, animal 31828
[3] = target: NKG2A on rhesus monkey (Macaca mulatta) NK cells (rhesus monkey (Macaca mulatta)) (UniProt Q9MZJ3); experiment: FACS rhesus whole blood, animal 34459
[4] = target: NKG2A on rhesus monkey (Macaca mulatta) NK cells (rhesus monkey (Macaca mulatta)) (UniProt Q9MZJ3); experiment: FACS rhesus whole blood, animal R00007
[5] = target: NKG2A on rhesus monkey (Macaca mulatta) NK cells (rhesus monkey (Macaca mulatta)) (UniProt Q9MZJ3); experiment: FACS rhesus whole blood, animal R00013
[6] = target: NKG2A on rhesus monkey (Macaca mulatta) NK cells (rhesus monkey (Macaca mulatta)) (UniProt Q9MZJ3); experiment: FACS rhesus whole blood, animal R00023
[7] = target: NKG2A on rhesus monkey (Macaca mulatta) NK cells (rhesus monkey (Macaca mulatta)) (UniProt Q9MZJ3); experiment: FACS rhesus whole blood, animal R00025
[8] = target: NKG2A on rhesus monkey (Macaca mulatta) NK cells (rhesus monkey (Macaca mulatta)) (UniProt Q9MZJ3); experiment: FACS rhesus whole blood, animal R00037
[9] = target: NKG2A on rhesus monkey (Macaca mulatta) NK cells (rhesus monkey (Macaca mulatta)) (UniProt Q9MZJ3); experiment: FACS rhesus whole blood, animal R00041
[10] = target: NKG2A on rhesus monkey (Macaca mulatta) NK cells (rhesus monkey (Macaca mulatta)) (UniProt Q9MZJ3); experiment: FACS rhesus whole blood, animal R00055
[11] = target: NKG2A on rhesus monkey (Macaca mulatta) NK cells (rhesus monkey (Macaca mulatta)) (UniProt Q9MZJ3); experiment: FACS rhesus whole blood, animal R00061
[12] = target: NKG2A on rhesus monkey (Macaca mulatta) NK cells (rhesus monkey (Macaca mulatta)) (UniProt Q9MZJ3); experiment: FACS rhesus whole blood, animal R00077
[13] = target: NKG2A on rhesus monkey (Macaca mulatta) NK cells (rhesus monkey (Macaca mulatta)) (UniProt Q9MZJ3); experiment: FACS rhesus whole blood, animal R00085
[14] = target: NKG2A on rhesus monkey (Macaca mulatta) NK cells (rhesus monkey (Macaca mulatta)) (UniProt Q9MZJ3); experiment: FACS rhesus whole blood, animal R00093
[15] = target: NKG2A on rhesus monkey (Macaca mulatta) NK cells (rhesus monkey (Macaca mulatta)) (UniProt Q9MZJ3); experiment: FACS rhesus whole blood, animal R00099
[16] = target: NKG2A on rhesus monkey (Macaca mulatta) NK cells (rhesus monkey (Macaca mulatta)) (UniProt Q9MZJ3); experiment: FACS rhesus whole blood, animal R00101
[17] = target: NKG2A on rhesus monkey (Macaca mulatta) NK cells (rhesus monkey (Macaca mulatta)) (UniProt Q9MZJ3); experiment: FACS rhesus whole blood, animal R99273
[18] = target: NKG2A on cynomolgus monkey NK cells (cynomolgus monkey) (UniProt Q68VD2); experiment: FACS cynomolgus whole blood, animal 1221
Chain of UniProt Q68VD2 (Q68VD2 entry or part of it): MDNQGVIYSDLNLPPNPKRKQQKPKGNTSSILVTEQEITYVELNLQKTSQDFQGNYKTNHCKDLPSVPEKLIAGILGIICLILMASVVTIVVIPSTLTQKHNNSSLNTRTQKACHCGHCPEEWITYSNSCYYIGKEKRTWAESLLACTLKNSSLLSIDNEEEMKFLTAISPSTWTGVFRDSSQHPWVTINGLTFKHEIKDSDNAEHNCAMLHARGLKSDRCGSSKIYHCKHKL

[19] = target: NKG2A on cynomolgus monkey NK cells (cynomolgus monkey) (UniProt Q68VD2); experiment: FACS cynomolgus whole blood, animal M859
[20] = target: NKG2A on cynomolgus monkey NK cells (cynomolgus monkey) (UniProt Q68VD2); experiment: FACS cynomolgus whole blood, animal R390
[21] = target: NKG2A on cynomolgus monkey NK cells (cynomolgus monkey) (UniProt Q68VD2); experiment: FACS cynomolgus whole blood, animal T270
[22] = target: NKG2A on cynomolgus monkey NK cells (cynomolgus monkey) (UniProt Q68VD2); experiment: FACS cynomolgus whole blood, animal T788
[23] = target: NKG2A on cynomolgus monkey NK cells (cynomolgus monkey) (UniProt Q68VD2); experiment: FACS cynomolgus whole blood, animal AK565
[24] = target: NKG2A on cynomolgus monkey NK cells (cynomolgus monkey) (UniProt Q68VD2); experiment: FACS cynomolgus whole blood, animal AK729
[25] = target: NKG2A on cynomolgus monkey NK cells (cynomolgus monkey) (UniProt Q68VD2); experiment: FACS cynomolgus whole blood, animal AL210
[26] = target: NKG2A on cynomolgus monkey NK cells (cynomolgus monkey) (UniProt Q68VD2); experiment: FACS cynomolgus whole blood, animal AL303
[27] = target: NKG2A on cynomolgus monkey NK cells (cynomolgus monkey) (UniProt Q68VD2); experiment: FACS cynomolgus whole blood, animal AL389
[28] = target: NKG2A on rhesus monkey (Macaca mulatta) NK cells (rhesus monkey (Macaca mulatta)) (UniProt Q9MZJ3); experiment: FACS rhesus whole blood, mean over animals
[29] = target: NKG2A on rhesus monkey (Macaca mulatta) NK cells (rhesus monkey (Macaca mulatta)) (UniProt Q9MZJ3); experiment: FACS rhesus whole blood, animal R00073 (5.6 kg)
[30] = target: NKG2A on rhesus monkey (Macaca mulatta) NK cells (rhesus monkey (Macaca mulatta)) (UniProt Q9MZJ3); experiment: FACS rhesus whole blood, animal R00073 (6.1 kg)
[31] = target: NKG2A on cynomolgus monkey NK cells (cynomolgus monkey) (UniProt Q68VD2); experiment: FACS cynomolgus whole blood, mean of 10 animals

Chain of UniProt Q9MZJ3 (Q9MZJ3 whole entry): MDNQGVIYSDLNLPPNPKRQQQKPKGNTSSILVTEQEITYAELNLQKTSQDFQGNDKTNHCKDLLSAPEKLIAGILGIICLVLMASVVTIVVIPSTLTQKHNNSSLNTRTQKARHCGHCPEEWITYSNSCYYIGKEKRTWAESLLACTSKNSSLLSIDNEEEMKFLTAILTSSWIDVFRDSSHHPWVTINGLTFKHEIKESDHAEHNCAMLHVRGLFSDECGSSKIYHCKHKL

mouse IgG2b isotype control (antibody)
% NK+ [1]: 0.5%
MFI [1]: 0.7
% NK+ [2]: 0.5%
MFI [2]: 0.7
% NK+ [3]: 1.2%
MFI [3]: 0.7
% NK+ [4]: 0.7%
MFI [4]: 0.4
% NK+ [5]: 0.2%
MFI [5]: 0.6
% NK+ [6]: 0.6%
MFI [6]: 0.3
% NK+ [7]: 0.4%
MFI [7]: 0.4
% NK+ [8]: 0.3%
MFI [8]: 0.5
% NK+ [9]: 0.3%
MFI [9]: 0.4
% NK+ [10]: 0.9%
MFI [10]: 0.6
% NK+ [11]: 0.2%
MFI [11]: 0.6
% NK+ [12]: 0.5%
MFI [12]: 0.4
% NK+ [13]: 0.3%
MFI [13]: 0.7
% NK+ [14]: 0.4%
MFI [14]: 0.6
% NK+ [15]: 0.3%
MFI [15]: 0.5
% NK+ [16]: 0.4%
MFI [16]: 0.5
% NK+ [17]: 0.6%
MFI [17]: 0.4
% NK+ [18]: 1.3%
MFI [18]: 0.8
% NK+ [19]: 0.2%
MFI [19]: 0.6
% NK+ [20]: 0.2%
MFI [20]: 0.5
% NK+ [21]: 0.2%
MFI [21]: 0.6
% NK+ [22]: 0.4%
MFI [22]: 0.6
% NK+ [23]: 0.3%
MFI [23]: 0.6
% NK+ [24]: 0.3%
MFI [24]: 0.6
% NK+ [25]: 0.3%
MFI [25]: 0.7
% NK+ [26]: 0.14%
MFI [26]: 0.7
% NK+ [27]: 0.4%
MFI [27]: 0.8
% NK+ (Mean) [28]: 0.5%
MFI (Mean) [28]: 0.5
% NK+ [29]: 0.39%
MFI [29]: 0.4
% NK+ [30]: 0.3%
MFI [30]: 0.3
% NK+ (Mean) [31]: 0.4%
MFI (Mean) [31]: 0.7
